Literature values as cited in patent US20120082669A1, “HUMAN EPO MIMETIC HINGE CORE MIMETIBODIES, COMPOSITIONS, METHODS AND USES FOR PREVENTING OR TREATING GLUCOSE INTOLERANCE RELATED CONDITIONS OR RENAL DISEASE ASSOCIATED ANEMIA” (priority 2006, published 2012).

Key:
[1] = cited from earlier work
[2] = test system: patients with end-stage renal disease; details: patients with end-stage renal disease treated with EPO; cited from earlier work
EPO receptor [3] = biological target: T1, EPO receptor (Homo sapiens, UniProt P19235); details: relative to HuEPO; cited from earlier work
T1 sequence (P19235 25-508): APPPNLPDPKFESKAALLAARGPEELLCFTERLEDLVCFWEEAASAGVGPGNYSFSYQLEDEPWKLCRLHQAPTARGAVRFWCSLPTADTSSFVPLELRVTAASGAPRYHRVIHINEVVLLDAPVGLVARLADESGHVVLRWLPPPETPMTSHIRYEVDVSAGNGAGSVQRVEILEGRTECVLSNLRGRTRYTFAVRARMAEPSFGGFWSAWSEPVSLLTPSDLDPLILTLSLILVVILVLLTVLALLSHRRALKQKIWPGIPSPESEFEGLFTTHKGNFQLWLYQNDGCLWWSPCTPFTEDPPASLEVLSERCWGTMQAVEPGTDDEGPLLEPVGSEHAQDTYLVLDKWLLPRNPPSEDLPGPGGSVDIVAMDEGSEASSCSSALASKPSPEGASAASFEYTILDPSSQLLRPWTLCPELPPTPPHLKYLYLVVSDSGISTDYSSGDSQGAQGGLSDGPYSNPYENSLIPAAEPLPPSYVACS

EPO receptor [4] = biological target: T1, EPO receptor; details: cited from earlier work
[5] = serum; cited from earlier work

Substance | time to peak serum levels ([1]; after subcutaneous administration) [h] | circulating half-life ([1]; intravenously administered, patients with CRF) [h] | time detectable levels of plasma erythropoietin are maintained ([1]; within the therapeutic dose range) | blood triglyceride, total cholesterol and LDL levels [2] | insulin resistance [2] | activity, fold less than HuEPO (EPO receptor [3]) | competition with 125I-labeled EPO for binding to the EPO receptor (EPO receptor [4]) | ex-vivo half-life [5] [h]
Erythropoietin: glycoprotein hormone of 165 amino acids and four carbohydrate chains, primary regulator of erythropoiesis | 5 to 24 | 3 to 4 | at least 24 hours | concomitant improvement | improve insulin resistance |  |  | 
GGTYSCHFGPLTWVCKPQGG [EMP-1] |  |  |  |  |  | 10,000 to 100,000 fold | competes | 8
